This experiment concerns the target His-tagged human CD47 protein (human) (UniProt Q08722). The experiment can be described thus: pull-down.
UniProt Q08722, sequence (Q08722 19-139): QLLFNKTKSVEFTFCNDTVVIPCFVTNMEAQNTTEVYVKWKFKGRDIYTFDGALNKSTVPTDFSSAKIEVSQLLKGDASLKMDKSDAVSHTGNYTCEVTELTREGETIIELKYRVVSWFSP

“fibronectin-binding protein B (FnBP B) of S. aureus laboratory strain 8325-4 (from UniProt A0A0H2XKG3 37-940) (natural protein)”: the percent of bacterial colonies precipitated in the pellets with recombinant hCD47 worked out at 83.2%.
